Experimental data published in article PMC5148603.
Each block holds one molecule with its values, some of them ahead of it.

Key:
[1] = target: T1, bovine lipoprotein lipase (bovine) (UniProt P11151); settings: scale: molecules of LPL per ANGPTL4 molecule per min
T1 sequence: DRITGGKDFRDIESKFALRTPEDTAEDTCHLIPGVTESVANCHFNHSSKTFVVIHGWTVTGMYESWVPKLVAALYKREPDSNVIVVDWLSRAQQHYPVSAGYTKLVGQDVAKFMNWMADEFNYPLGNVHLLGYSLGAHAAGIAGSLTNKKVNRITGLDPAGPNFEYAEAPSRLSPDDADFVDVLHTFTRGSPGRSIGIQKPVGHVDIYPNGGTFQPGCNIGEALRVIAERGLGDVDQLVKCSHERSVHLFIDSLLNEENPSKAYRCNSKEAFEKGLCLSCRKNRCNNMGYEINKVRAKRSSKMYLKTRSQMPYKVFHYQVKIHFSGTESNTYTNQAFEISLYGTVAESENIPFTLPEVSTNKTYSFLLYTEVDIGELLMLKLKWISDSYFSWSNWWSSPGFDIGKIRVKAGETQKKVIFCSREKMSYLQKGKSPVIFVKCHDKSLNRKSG

[2] = target: coiled-coil domain of wild-type human ANGPTL4 (residues 1–159) (human); assay: SDS-PAGE before and after reduction (disulfide-linked oligomers); Coomassie blue-stained gel of purified ANGPTL4 1–159 before and after reduction and alkylation; optical scanning of lanes of two-fold serial dilutions
[3] = target: T1, bovine lipoprotein lipase (bovine); settings: scale: molecules LPL per ANGPTL4 molecule per min

catalytic efficacy of unfolding of LPL's hydrolase domain (pulse-labelling HDX-MS, bimodality of peptide 131–165); 10 µM LPL with 0.25, 0.5 and 1 µM ANGPTL4 1–159, 25°C, early time points [1]: 1.6
percent of the total protein that is covalent (disulfide-linked) dimer [2]: 10%
stoichiometry N [2]: 2
Molecule: coiled-coil domain of wild-type human ANGPTL4 (residues 1–159) (domain or fragment)

catalytic efficacy of unfolding of LPL's hydrolase domain (pulse-labelling HDX-MS, peptide 131–165); 10 µM LPL with 0.5, 1 and 2 µM ANGPTL4 1–159/E15K, 25°C, linear phases of the progress curves [3]: 0.6
B1: coiled-coil domain of human ANGPTL4 E15K (residues 1–159) (domain or fragment)
chain: MGPVQSKSPRFASWDKMNVLAHGLLQLGQGLREHAERTRSQLSALERRLSACGSACQGTEGSTDLPLAPESRVDPEVLHSLQTQLKAQNSRIQQLFHKVAQQQRHLEKQHLRIQHLQSQFGLLDHKHLDHEVAKPARRKRLPEMAQPVDPAHNVSRLHRL
